From US20230235011A1 (BEIJING BEYOND BIOTECHNOLOGY, published 2023)

T1: trop-2 protein (UniProt P09758 27-274, limits assumed)
T1 construct: Bought antigen, used as the SPR analyte; The printed catalogue number is doubtful
T1 sequence (looked up): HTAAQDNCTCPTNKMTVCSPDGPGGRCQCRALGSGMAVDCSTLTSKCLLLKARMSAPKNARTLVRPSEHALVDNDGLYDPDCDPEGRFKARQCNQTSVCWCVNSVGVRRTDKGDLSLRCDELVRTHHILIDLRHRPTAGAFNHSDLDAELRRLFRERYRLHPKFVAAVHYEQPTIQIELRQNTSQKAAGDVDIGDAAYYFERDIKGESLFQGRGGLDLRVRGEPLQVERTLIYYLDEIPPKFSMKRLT

B1: anti-trop-2 antibody BY43 (sacituzumab) (antibody, human IgG1, kappa, V domains shown)
VH: QVQLQQSGSELKKPGASVKVSCKASGYTFTNYGMNWVKQAPGQGLKWMGWINTYTGEPTYTDDFKGRFAFSLDTSVSTAYLQISSLKADDTAVYFCARGGFGSSYWYFDVWGQGSLVTVSS
VL: DIQLTQSPSSLSASVGDRVSITCKASQDVSIAVAWYQQKPGKAPKLLIYSASYRYTGVPDRFSGSGSGTDFTLTISSLQPEDFAVYYCQQHYITPLTFGAGTKVEIKR
notes: Made in-house from INN 10418; also called control antibody BY43
B2: anti-GPC-3 antibody BY20.2 (codrituzumab) (antibody, human IgG1, kappa, V domains shown)
VH: QVQLVQSGAEVKKPGASVKVSCKASGYTFTDYEMHWVRQAPGQGLEWMGALDPKTGDTAYSQKFKGRVTLTADKSTSTAYMELSSLTSEDTAVYYCTRFYSYTYWGQGTLVTVSS
VL: DVVMTQSPLSLPVTPGEPASISCRSSQSLVHSNRNTYLHWYLQKPGQSPQLLIYKVSNRFSGVPDRFSGSGSGTDFTLKISRVEAEDVGVYYCSQNTHVPPTFGQGTKLEIKR
notes: Made in-house from INN 9759; If the listing has 19, the mature range is 20-238; also called control antibody BY20.2

Legend:
trop-2 protein = biological target: T1, trop-2 protein; experiment: SPR (Biacore T100, 25 C); binder captured on anti-human IgG CM5 chip, trop-2 protein as analyte
GPC-3 protein = biological target: T2, GPC-3 protein (UniProt P51654 25-559, limits assumed); experiment: SPR (Biacore T100, 25 C); binder captured on anti-human IgG CM5 chip, GPC-3 protein as analyte
T2 construct: Bought antigen, used as the SPR analyte; also called Glypican-3
T2 sequence (P51654 25-559 limits assumed): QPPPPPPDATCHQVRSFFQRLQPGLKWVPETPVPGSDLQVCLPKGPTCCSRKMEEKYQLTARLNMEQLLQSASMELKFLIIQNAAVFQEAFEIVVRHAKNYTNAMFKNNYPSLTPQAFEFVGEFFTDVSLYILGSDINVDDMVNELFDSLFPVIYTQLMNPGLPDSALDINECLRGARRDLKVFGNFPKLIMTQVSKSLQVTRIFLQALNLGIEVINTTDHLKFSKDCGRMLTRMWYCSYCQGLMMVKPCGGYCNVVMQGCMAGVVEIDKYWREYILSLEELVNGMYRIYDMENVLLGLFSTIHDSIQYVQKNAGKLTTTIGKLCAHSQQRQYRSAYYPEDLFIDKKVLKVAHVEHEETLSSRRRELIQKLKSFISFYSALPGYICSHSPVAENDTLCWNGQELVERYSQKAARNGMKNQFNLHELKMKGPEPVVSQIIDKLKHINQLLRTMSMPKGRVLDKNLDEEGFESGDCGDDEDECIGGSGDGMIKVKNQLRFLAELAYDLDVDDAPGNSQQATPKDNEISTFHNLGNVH

Binder	Kd (trop-2 protein) [nM]	koff (trop-2 protein) [s⁻¹]	kon (trop-2 protein) [M⁻¹ s⁻¹]	Kd (GPC-3 protein) [nM]	koff (GPC-3 protein) [s⁻¹]	kon (GPC-3 protein) [M⁻¹ s⁻¹]
B1	0.857	4.82e-05	56300			
B2				2.08	7.57e-05	36400
